This is an account of results in publication PMC2946066.

The assay has as its target VHH ALc-B8 expressed as thioredoxin fusion protein (alpaca). Description: SPR.

The term Kd denotes the equilibrium constant for the complex coming apart. A high value points to weaker binding.

Turning to “recombinant BoNT/A protease (light chain), amino acids 1–448 of BoNT/A holotoxin (from UniProt P0DPI1 1-448) (enzyme)”, the Kd was 1.06 nM.
